The values below come from patent US20240263191.

In the series the target is KLF15 (hKLF15) (Homo sapiens) (UniProt Q9UIH9). The series is described as follows: cell_activity. To be noted: AAV8-GNAT1-hKLF15 subretinal in pig, 2x10^10 gc, 15 days; 38% repression of protein.
Sequence of KLF15 (hKLF15) (Homo sapiens) (Q9UIH9 whole entry, the tested form may be a part): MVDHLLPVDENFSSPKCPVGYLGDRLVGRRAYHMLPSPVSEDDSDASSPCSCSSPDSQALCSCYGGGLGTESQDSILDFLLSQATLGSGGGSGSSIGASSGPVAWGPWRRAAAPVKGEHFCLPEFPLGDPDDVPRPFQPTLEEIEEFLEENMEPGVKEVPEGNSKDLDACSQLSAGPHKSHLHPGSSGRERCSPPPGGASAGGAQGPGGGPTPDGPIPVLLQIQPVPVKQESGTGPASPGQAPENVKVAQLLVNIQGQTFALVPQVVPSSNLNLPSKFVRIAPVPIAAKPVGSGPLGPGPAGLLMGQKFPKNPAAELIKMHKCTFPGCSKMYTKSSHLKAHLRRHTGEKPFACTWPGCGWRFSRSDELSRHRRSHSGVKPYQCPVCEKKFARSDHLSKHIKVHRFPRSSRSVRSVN

For the substance “endogenous porcine Rho promoter (hRHO-cis highly conserved)”, the activity (% repression of Rho transcript) was 45.
